Sequences and labels used below:
B1: Krev interaction trapped protein 1 (Homo sapiens), O00522 (parent)
chain: MGNPENIEDAYVAVIRPKNTASLNSREYRAKSYEILLHEVPIEGQKKKRKKVLLETKLQGNSEITQGILDYVVETTKPISPANQGIRGKRVVLMKKFPLDGEKMGREASLFIVPSVVKDNTKYTYTPGCPIFYCLQDIMRVCSESSTHFATLTARMLIALDKWLDERHAQSHFIPALFRPSPLERIKTNVINPAYATESGQTENSLHMGYSALEIKSKMLALEKADTCIYNPLFGSDLQYTNRVDKVVINPYFGLGAPDYSKIQIPKQEKWQRSMSSVTEDKERQWVDDFPLHRSACEGDSELLSRLLSERFSVNQLDSDHWAPIHYACWYGKVEATRILLEKGKCNPNLLNGQLSSPLHFAAGGGHAEIVQILLNHPETDRHITDQQGRSPLNICEENKQNNWEEAAKLLKEAINKPYEKVRIYRMDGSYRSVELKHGNNTTVQQIMEGMRLSQETQQYFTIWICSENLSLQLKPYHKPLQHVRDWPEILAELTNLDPQRETPQLFLRRDVRLPLEVEKQIEDPLAILILFDEARYNLLKGFYTAPDAKLITLASLLLQIVYGNYESKKHKQGFLNEENLKSIVPVTKLKSKAPHWTNRILHEYKNLSTSEGVSKEMHHLQRMFLQNCWEIPTYGAAFFTGQIFTKASPSNHKVIPVYVGVNIKGLHLLNMETKALLISLKYGCFMWQLGDTDTCFQIHSMENKMSFIVHTKQAGLVVKLLMKLNGQLMPTERNS

In the first experiment the parent is B1. The following applies: with ccm2_human CCM2, Q9BSQ5.
Sequence of ccm2_human CCM2, Q9BSQ5 (Q9BSQ5 whole entry): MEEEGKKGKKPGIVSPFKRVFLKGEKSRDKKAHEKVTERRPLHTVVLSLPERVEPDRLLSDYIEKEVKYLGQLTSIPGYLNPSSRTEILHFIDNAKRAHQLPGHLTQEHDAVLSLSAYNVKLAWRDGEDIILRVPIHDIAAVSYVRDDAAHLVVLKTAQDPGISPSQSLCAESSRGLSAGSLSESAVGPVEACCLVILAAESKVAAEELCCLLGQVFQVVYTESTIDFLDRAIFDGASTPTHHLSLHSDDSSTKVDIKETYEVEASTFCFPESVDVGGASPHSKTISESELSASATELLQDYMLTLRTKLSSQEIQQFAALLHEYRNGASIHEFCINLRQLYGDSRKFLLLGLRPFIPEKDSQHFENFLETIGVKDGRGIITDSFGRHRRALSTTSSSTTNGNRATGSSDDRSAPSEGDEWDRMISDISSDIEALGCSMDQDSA
For V248D, the “effect of a mutation on the interaction” value was “disrupting interaction strength”.

Turning to Y252A;F253A, the “effect of a mutation on the interaction” value is reported as “disrupting interaction strength”. Consider V244L, for which the “effect of a mutation on the interaction” value is reported as “decreasing interaction strength”.

The variants in the next experiment derive from B1. The settings on record: with ccm2_human CCM2, Q9BSQ5. This is another data set of the same source.
Regarding Y195A, the “effect of a mutation on the interaction” value is “with no effect”.

Take F234A;Y252A;F253A: the “effect of a mutation on the interaction” value is on record as “decreasing interaction strength”. Still for that read-out and setting: to Y252A;F253A belongs “with no effect”; to F234A, “with no effect”.

These data come from IntAct's records for PubMed 25525273.
